Results published in publication PMC6321010, “Interaction of the GTPase Elongation Factor Like-1 with the Shwachman-Diamond Syndrome Protein and Its Missense Mutations” (International Journal of Molecular Sciences, 2018).
Where a chain is given by its changes, count along the chain named.

Tests used:
Test in all cases: fluorescence polarisation; fluorescence anisotropy; 2 µL additions of 40-90 µM human EFL1 titrated into 300 µL of 0.1 µM Lumio Green-labelled human SBDS-FlAsH construct; 25 °C; 50 mM Tris-HCl pH 8, 300 mM NaCl, 5 mM β-mercaptoethanol; fitted to a single-site or a two different binding sites model
Conditions in all cases: both partners purified
[1] = target: T1, human SBDS R19Q with C-terminal FlAsH tag, labelled with Lumio Green (human, UniProt Q9Y3A5 1-250, R19Q, Lumio Green dye (4',5'-bis(1,3,2-dithioarsolan-2-yl) fluorescein) on the C-terminal FlAsH tag)
T1 construct: human SBDS, SDS disease surface missense variant R19Q (domain 1), in the three-domain protein; Missense variant found in patients; source: E. coli C41 (pRSET plasmid), purified by conventional chromatographic techniques; not shown: FlAsH tag (Cys-Cys-Pro-Gly-Cys-Cys), C-terminal, kept
T1 sequence (looked up): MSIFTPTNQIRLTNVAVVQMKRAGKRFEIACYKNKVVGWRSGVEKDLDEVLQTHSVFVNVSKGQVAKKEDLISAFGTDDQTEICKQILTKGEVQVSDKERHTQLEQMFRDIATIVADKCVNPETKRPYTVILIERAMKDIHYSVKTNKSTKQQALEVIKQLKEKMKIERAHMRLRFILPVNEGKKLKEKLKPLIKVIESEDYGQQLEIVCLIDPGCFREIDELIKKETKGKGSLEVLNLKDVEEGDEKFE

[2] = target: T2, human SBDS I167T with C-terminal FlAsH tag, labelled with Lumio Green (human, UniProt Q9Y3A5 1-250, I167T, Lumio Green dye (4',5'-bis(1,3,2-dithioarsolan-2-yl) fluorescein) on the C-terminal FlAsH tag)
T2 construct: human SBDS, SDS disease surface missense variant I167T (domain 2), in the three-domain protein; Missense variant found in patients; source: E. coli C41 (pRSET plasmid), purified by conventional chromatographic techniques; not shown: FlAsH tag (Cys-Cys-Pro-Gly-Cys-Cys), C-terminal, kept
T2 sequence (looked up): T1 sequence (looked up) with Q19R, I167T

[3] = target: T3, human SBDS R175W with C-terminal FlAsH tag, labelled with Lumio Green (human, UniProt Q9Y3A5 1-250, R175W, Lumio Green dye (4',5'-bis(1,3,2-dithioarsolan-2-yl) fluorescein) on the C-terminal FlAsH tag)
T3 construct: Missense variant found in patients; source: E. coli C41 (pRSET plasmid), purified by conventional chromatographic techniques; not shown: FlAsH tag (Cys-Cys-Pro-Gly-Cys-Cys), C-terminal, kept
T3 sequence (looked up): T1 sequence (looked up) with Q19R, R175W

B1: human Elongation Factor Like-1 (EFL1) (enzyme)
chain: MVLNSLDKMIQLQKNTANIRNICVLAHVDHGKTTLADCLISSNGIISSRLAGKLRYMDSREDEQIRGITMKSSAISLHYATGNEEYLINLIDSPGHVDFSSEVSTAVRICDGCIIVVDAVEGVCPQTQAVLRQAWLENIRPVLVINKIDRLIVELKFTPQEAYSHLKNILEQINALTGTLFTSKVLEERAERETESQVNPNSEQGEQVYDWSTGLEDTDDSHLYFSPEQGNVVFTSAIDGWGFGIEHFARIYSQKIGIKKEVLMKTLWGDYYINMKAKKIMKGDQAKGKKPLFVQLILENIWSLYDAVLKKDKDKIDKIVTSLGLKIGAREARHSDPKVQINAICSQWLPISHAVLAMVCQKLPSPLDITAERVERLMCTGSQTFDSFPPETQALKAAFMKCGSEDTAPVIIFVSKMFAVDAKALPQNKPRPLTQEEIAQRRERARQRHAEKLAAAQGQAPLEPTQDGSAIETCPKGEEPRGDEQQVESMTPKPVLQEENNQESFIAFARVFSGVARRGKKIFVLGPKYSPLEFLRRVPLGFSAPPDGLPQVPHMAYCALENLYLLMGRELEYLEEVPPGNVLGIGGLQDFVLKSATLCSLPSCPPFIPLNFEATPIVRVAVEPKHPSEMPQLVKGMKLLNQADPCVQILIQETGEHVLVTAGEVHLQRCLDDLKERFAKIHISVSEPIIPFRETITKPPKVDMVNEEIGKQQKVAVIHQMKEDQSKIPEGIQVDSDGLITITTPNKLATLSVRAMPLPEEVTQILEENSDLIRSMEQLTSSLNEGENTHMIHQKTQEKIWEFKGKLEQHLTGRRWRNIVDQIWSFGPRKCGPNILVNKSEDFQNSVWTGPADKASKEASRYRDLGNSIVSGFQLATLSGPMCEEPLMGVCFVLEKWDLSKFEEQGASDLAKEGQEENETCSGGNENQELQDGCSEAFEKRTSQKGESPLTDCYGPFSGQLIATMKEACRYALQVKPQRLMAAMYTCDIMATGDVLGRVYAVLSKREGRVLQEEMKEGTDMFIIKAVLPVAESFGFADEIRKRTSGLASPQLVFSHWEIIPSDPFWVPTTEEEYLHFGEKADSENQARKYMNAVRKRKGLYVEEKIVEHAEKQRTLSKNK
notes: human EFL1, GTPase, said to comprise 1120 residues; the expressed protein is fused to a TEV recognition site and a hexahistidine tag at the C-terminus; also called human EFL1; GTPase Elongation Factor Like-1; source: S. cerevisiae BCY123 (pRS426 backbone, GAL1/10 promoter), purified
- Kd1 (first binding site, two different binding sites model) [1]: 4.2 ± 0.5 µM
- Kd2 (second binding site, two different binding sites model) [1]: 5.2 ± 0.3 µM
- Kd1 (first binding site, two different binding sites model) [2]: 10 ± 3 µM
- Kd2 (second binding site, two different binding sites model) [2]: 1.4 ± 0.2 µM
- Kd1 (first binding site, two different binding sites model) [3]: 12 ± 4 µM
- Kd2 (second binding site, two different binding sites model) [3]: 3.3 ± 0.6 µM
